Measurements published in PMC12613146.
Values joined by “and” are separate entries in the source; they are usually repeats but may differ in a detail not shown here. Equal values may be shown once.

Biological target: ectodomain of the epidermal growth factor receptor, EGFR25-645 (human)
Experiment: BLI; biotinylated ligand (50 nM, 5 min) on streptavidin sensors, DDM proteomicelles of the membrane protein in the wells (six two-fold dilutions); 20 mM Tris-HCl, 300 mM KCl, 0.2% (w/v) DDM, 1 mg/ml BSA, pH 7.5; 22 °C; global fits, KD = koff/kon

Chain of TGF-α(GGS)2tFhuA (chain): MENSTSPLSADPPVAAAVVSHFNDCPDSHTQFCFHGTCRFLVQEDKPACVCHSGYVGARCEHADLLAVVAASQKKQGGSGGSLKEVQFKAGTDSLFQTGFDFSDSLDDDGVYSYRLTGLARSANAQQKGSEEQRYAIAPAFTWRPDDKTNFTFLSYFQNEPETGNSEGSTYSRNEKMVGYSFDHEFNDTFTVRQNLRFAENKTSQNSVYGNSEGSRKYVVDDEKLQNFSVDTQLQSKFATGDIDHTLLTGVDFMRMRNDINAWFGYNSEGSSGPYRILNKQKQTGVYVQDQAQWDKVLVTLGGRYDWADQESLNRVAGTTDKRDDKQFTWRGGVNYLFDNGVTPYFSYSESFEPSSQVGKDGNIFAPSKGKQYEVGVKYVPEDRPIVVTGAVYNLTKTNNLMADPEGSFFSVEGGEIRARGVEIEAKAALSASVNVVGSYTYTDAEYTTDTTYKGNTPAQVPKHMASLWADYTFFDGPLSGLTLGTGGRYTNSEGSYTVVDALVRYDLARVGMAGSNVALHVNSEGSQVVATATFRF

kon: 2600 M⁻¹ s⁻¹ and 2400 M⁻¹ s⁻¹ and 2500 M⁻¹ s⁻¹
Substance: TGF-α(GGS)2tFhuA
